Data on four molecules can be found in patent US20100028924A1, “Method Of Diagnosing Pon1-Hdl Associated Lipid Disorders” (Rappaport Family Institute Research in the Medical Sciences, priority 2006, published 2010).

The nature of data set [1]: Inactivation kinetics of rePON1 192 isozymes in activity buffer. The settings on record: EDTA and β-mercaptoethanol, 37° C. The data set is classed as biochemical. Here is the method:
(§1) FIG. 1 is a graph showing the inactivation kinetics of the wild-type rePON1-192K (SEQ ID NO:2), -192R (SEQ ID NO:4) and -192Q (SEQ ID NO:6) isozymes, bound to rHDL-apoA-I, or in buffer. Delipidated enzymes were incubated with a 50-fold excess of rHDL-apoA-I, or in activity buffer, and subjected to inactivation in the presence of EDTA (5 mM) and β-mercaptoethanol (10 mM) at 37° C. Residual activity at various time points was determined by initial rates of phenyl acetate hydrolysis (2 mM) and plotted as percent of the activity at time zero. Data were fitted to a single exponential for wild-type rePON1-192K on rHDL-apoA-I, and to double-exponentials for the remaining samples. The inactivation rate constants and amplitudes were derived from this fit;
(§2) Inactivation rates of rePON1s were measured as described [Gaidukov, L. and D. S. Tawfik, Biochemistry, 2005. 44(35): p. 11843-54]. Briefly, rePON1 samples were delipidated using Bio-Beads SM-2 (BioRad) and incubated in buffer, or with 50-fold molar excess of rHDL-apoA-I. EDTA (10 mM) and β-mercaptoethanol (20 mM) were added, and samples were incubated at 37° C. Residual activity at different time points was determined with 2 mM phenyl acetate, and inactivation rates were fitted to either mono- or double-exponentials [Gaidukov, L. and D. S. Tawfik, Biochemistry, 2005. 44(35): p. 11843-54].
(§3) The resultant inactivation profiles of wt rePON1 (SEQ ID NO: 2), rePON1-192Q (SEQ ID NO: 6) and rePON1-192R (SEQ ID NO: 4), were fitted to exponential curves as illustrated in FIG. 1.

Data set [2] concerns apoA-I rHDL. Put plainly: Inactivation kinetics of rePON1 192 isozymes bound to rHDL-apoA-I (EDTA/β-mercaptoethanol, residual phenyl acetate hydrolysis). The data set is classed as biochemical. The settings on record: for A2 (amplitude) (%): as printed in Table 2 beside the SPR constants of the Δ20 variants. The procedure: as §1, §2, §3
Data set [3] concerns apoA-I rHDL. Put plainly: Stimulation of enzymatic activity of rePON1 192 isozymes by rHDL-apoA-I. In kind it is biochemical. The settings on record: for Vmax (%) activation factor: relative to delipidated enzyme (100%). An excerpt: The activity is presented in relation to the initial activity of the delipidated enzymes (percentage of stimulation). Data were fitted to the Langmuir saturation curve, from which the activation factor (Vmax) and the apparent affinity (Kapp) were derived;
Stimulated activity is presented as the percentage of the initial activity of the delipidated enzymes (corresponds to 100%). Data were fitted to the Langmuir saturation curve, from which the activation factor (Vmax) and the apparent affinity (Kapp) were derived;
Delipidated rePONs at 0.2 μM were incubated with a range of rHDL concentrations (0.1-10 μM) for 3 hrs at 37° C. Enzymatic activity was determined in activity buffer (50 mM Tris pH 8.0, 1 mM CaCl2) with substrates at 1 mM concentrations as described [Gaidukov, L. and D. S. Tawfik, Biochemistry, 2005. 44(35): p. 11843-54]. 5-(thiobutyl)-butyrolactone (TBBL) was applied at 0.25 mM, and product formation was monitored spectrophotometrically at 412 nm using 5,5′-dithio-bis-2-nitrobenzoic acid (DTNB) as described [Khersonsky, O. and D. S. Tawfik, Chembiochem, 2006. 7(1): p. 49-53].
Stimulation of the enzymatic activity was examined by incubating rePON1 isozymes with a range of rHDL concentrations (at the HDL/PON ratio of 0.5-50), and measuring the catalytic activity with various substrates as detailed hereinabove. FIGS. 3A-B illustrate the enzymatic activity of the rePON1 isozymes with δ-nonanoic lactone as substrate (FIG. 3A) and thiobutyl butiryl lactone (TBBL) as substrate (FIG. 3B). FIGS. 4A-D illustrate the enzymatic activity of the rePON1 isozymes with γ-dodecanoic lactone as substrate (FIG. 4A), δ-valerolactone as substrate (FIG. 4B), phenyl acetate as substrate (FIG. 4C) and paraoxon as substrate (FIG. 4D). Data were fitted to the Langmuir saturation curve to give the activation factor Vmax (in percent relative to the delipidated PON1) and the apparent affinity Kapp.

Data set [4] has as its target apoA-I rHDL. The data set is described as follows: Surface plasmon resonance binding of Δ20-rePON1 192 isozymes to immobilized rHDL-apoA-I. The settings on record: for Kd / koff / kon: SPR, 25° C., biotinylated rHDL-apoA-I on streptavidin chip. The procedure:
FIGS. 2A-C are sensorgrams for the binding of wt Δ20-rePON1-192K—SEQ ID NO:8 (FIG. 2A), Δ20-rePON1-192R—SEQ ID NO:10 (FIG. 2B) and Δ20-rePON1-192Q—SEQ ID NO:12 (FIG. 2C) isozymes to rHDL-apoA-I. Biotinylated rHDL-apoA-I particles were immobilized onto the streptavidin surface (SA chip), and a series of PON1 concentrations were injected over the immobilized and blank surfaces to obtain the net binding response. Binding was performed at 25° C. Association and dissociation phases were fitted to a single exponential, from which kinetic rate constants were derived. PON1 concentrations in all the sensorgrams are (from bottom to top) 25, 40, 60, 80, 100, 150 and 200 nM;
Surface plasmon resonance (SPR) measurements: rHDL-apoA-I particles containing 0.7% of N-biotinyl-dipalmitoylphosphatidylethanolamine (N-biotynyl-DPPE; Avanti Polar Lipids) were prepared and purified as described [Gaidukov, L. and D. S. Tawfik, Biochemistry, 2005. 44(35): p. 11843-54]. SPR was performed on BIAcore 3000 (Uppsala, Sweden) as described [Gaidukov, L. and D. S. Tawfik, Biochemistry, 2005. 44(35): p. 11843-54]. Briefly, the biotinylated rHDL particles were adsorbed on streptavidin (SA5) chip, and Δ20-rePON1 isozymes were injected over the immobilized and blank surfaces to obtain the net binding response. Binding rate constants were obtained by fitting of association and dissociation phases to single exponentials as described [Gaidukov, L. and D. S. Tawfik, Biochemistry, 2005. 44(35): p. 11843-54].
The above results were further supported by affinity measurements using surface plasmon resonance. It was previously shown that HDL affinity of the intact rePON1 is very high (sub-nanomolar) and could not be determined accurately using surface plasmon resonance [Gaidukov, L., and Tawfik, D. S. (2005)Biochemistry 44, 11843-11854]. In contrast, binding affinity of the truncated variant lacking the first 20 amino acids of the hydrophobic N-terminus (Δ20-rePON1) could be amply determined. Therefore, the truncated variants of PON1 192 isozymes were prepared and their HDL binding affinities measured. Typical binding sensorgrams between Δ20-rePON1 isozymes and the immobilized HDL particles are portrayed in FIGS. 2A-C, and the derived rate and affinity constants are summarized in Table 2 herein below.

Where [5] appears, read: apoA-I rHDL, 50-fold molar excess, EDTA and β-mercaptoethanol, 37° C.
The mark [6] stands for this setting: substrate γ-dodecanoic lactone 1 mM.
The mark [7] stands for this setting: substrate δ-nonanoic lactone 1 mM.

As a reminder, the Kd is the concentration at which binding is half-saturated. A lower Kd goes with a tighter complex.

B1: rePON1-192Q: recombinant PON1 with glutamine at position 192, generated to mimic the human Q isozyme (protein)
chain: MAKLTALTLLGLGLALFDGQKSSFQTRFNVHREVTPVELPNCNLVKGVDNGSEDLEILPNGLAFISSGLKYPGIMSFDPDKSGKILLMDLNEEDPVVLELGITGNTLDISSFNPHGISTFTDEDNTVYLLVVNHPDSSSTVEVFKFQEEEKSLLHLKTIRHKLLPSVNDIVAVGPEHFYATNDHYFADPYLQSWEMHLGLAWSFVTYYSPNDVRVVAEGFDFANGINISPDGKYVYIAELLAHKIHVYEKHANWTLTPLKSLDFDTLVDNISVDPVTGDLWVGCHPNGMRIFYYDPKNPPGSEVLRIQDILSEEPKVTVVYAENGTVLQGSTVAAVYKGKLLIGTVFHKALYCEL
modifications: rePON1-192Q isozyme
notes: recombinant PON1 with glutamine at position 192, generated to mimic the human Q isozyme
B1: the “k1^inactiv (first, fast phase)” value amounted to 5.2 h⁻¹ in data set [1] and 1.1 h⁻¹ in data set [2] (setting [5]). Besides, the “k2^inactiv (second, slow phase)” value is 0.3 h⁻¹ in data set [1] and 0.01 h⁻¹ in data set [2] (setting [5]). Also, the “A2 (%) (amplitude of second, slow inactivation phase = HDL-bound fraction)” value in data set [2] (setting [5]) was determined as 70%. Also, in data set [3] (all the substrates tested), the “reduction of Vmax compared to wt rePON1-192K” value is listed as 50-80%. Also, the “Kapp (apparent affinity for HDL stimulation)” value in data set [3] (substrate TBBL 0.25 mM) is 0.5 ± 0.1 µM; in data set [3] (substrate phenyl acetate 1 mM) it was 0.8 ± 0.1 µM; in data set [3] (setting [6]) it was 0.6 ± 0.2 µM; in data set [3] (setting [7]), 0.6 ± 0.1 µM; in data set [3] (substrate δ-valerolactone 1 mM) it was 1.1 ± 0.1 µM. The “Vmax (%) activation factor” value in data set [3] (substrate TBBL 0.25 mM) worked out at 340 ± 4%; in data set [3] (substrate paraoxon 1 mM) it was 128 ± 1%; in data set [3] (substrate phenyl acetate 1 mM), 165 ± 1%; in data set [3] (setting [6]), 382 ± 20%; in data set [3] (setting [7]), 778 ± 12%; in data set [3] (substrate δ-valerolactone 1 mM) it was 481 ± 7%.

B2: wt Δ20-rePON1-192K: truncated rePON1 variant lacking the first 20 amino acids of the hydrophobic N-terminus, 192K (protein)
chain: MAKSSFQTRFNVHREVTPVELPNCNLVKGVDNGSEDLEILPNGLAFISSGLKYPGIMSFDPDKSGKILLMDLNEEDPVVLELGITGNTLDISSFNPHGISTFTDEDNTVYLLVVNHPDSSSTVEVFKFQEEEKSLLHLKTIRHKLLPSVNDIVAVGPEHFYATNDHYFADPYLKSWEMHLGLAWSFVTYYSPNDVRVVAEGFDFANGINISPDGKYVYIAELLAHKIHVYEKHANWTLTPLKSLDFDTLVDNISVDPVTGDLWVGCHPNGMRIFYYDPKNPPGSEVLRIQDILSEEPKVTVVYAENGTVLQGSTVAAVYKGKLLIGTVFHKALYCEL
modifications: Delta20-rePON1-192K isozyme
notes: truncated rePON1 variant lacking the first 20 amino acids of the hydrophobic N-terminus, 192K
Turning to B2, the “A2 (amplitude) (%)” value in data set [2] was found to be 100%. Also, in data set [4], the Kd is 100 nM, the koff result is reported as “(2.0 ± 0.2) × 10^−2 s^−1” and the kon entry is “(2.0 ± 0.3) × 10^5 s^−1 M^−1”. Further, the “fold higher HDL binding affinity than the Q isozyme” value in data set [4] (relative to the Q isozyme) was found to be 3 fold.

B3: Δ20-rePON1-192Q: truncated rePON1 variant lacking the first 20 N-terminal amino acids, 192Q isozyme (protein)
chain: MAKSSFQTRFNVHREVTPVELPNCNLVKGVDNGSEDLEILPNGLAFISSGLKYPGIMSFDPDKSGKILLMDLNEEDPVVLELGITGNTLDISSFNPHGISTFTDEDNTVYLLVVNHPDSSSTVEVFKFQEEEKSLLHLKTIRHKLLPSVNDIVAVGPEHFYATNDHYFADPYLQSWEMHLGLAWSFVTYYSPNDVRVVAEGFDFANGINISPDGKYVYIAELLAHKIHVYEKHANWTLTPLKSLDFDTLVDNISVDPVTGDLWVGCHPNGMRIFYYDPKNPPGSEVLRIQDILSEEPKVTVVYAENGTVLQGSTVAAVYKGKLLIGTVFHKALYCEL
modifications: Delta20-rePON1-192Q isozyme
notes: truncated rePON1 variant lacking the first 20 N-terminal amino acids, 192Q isozyme
B3: the “A2 (amplitude) (%)” value in data set [2] turned out to be 70%. Also, in data set [4], the Kd stood at 300 nM, the koff result was “(4.2 ± 0.2) × 10^−2 s^−1” and the kon entry is “(1.4 ± 0.5) × 10^5 s^−1 M^−1”.

B4: Δ20-rePON1-192R: truncated rePON1 variant lacking the first 20 N-terminal amino acids, 192R isozyme (protein)
chain: MAKSSFQTRFNVHREVTPVELPNCNLVKGVDNGSEDLEILPNGLAFISSGLKYPGIMSFDPDKSGKILLMDLNEEDPVVLELGITGNTLDISSFNPHGISTFTDEDNTVYLLVVNHPDSSSTVEVFKFQEEEKSLLHLKTIRHKLLPSVNDIVAVGPEHFYATNDHYFADPYLRSWEMHLGLAWSFVTYYSPNDVRVVAEGFDFANGINISPDGKYVYIAELLAHKIHVYEKHANWTLTPLKSLDFDTLVDNISVDPVTGDLWVGCHPNGMRIFYYDPKNPPGSEVLRIQDILSEEPKVTVVYAENGTVLQGSTVAAVYKGKLLIGTVFHKALYCEL
modifications: Delta20-rePON1-192R isozyme
notes: truncated rePON1 variant lacking the first 20 N-terminal amino acids, 192R isozyme
For the molecule B4, in data set [2], the “A2 (amplitude) (%)” value was 90%. Also, in data set [4], the affinity, expressed as Kd, was 110 nM; the koff result is reported as “(2.9 ± 0.2) × 10^−2 s^−1”; the kon entry is on record as “(2.6 ± 0.3) × 10^5 s^−1 M^−1”.
